Measured values: publication PMC7515722, “Participation of RecJ in the base excision repair pathway of Deinococcus radiodurans”

Target: T1, drRecJ R109A (Deinococcus radiodurans, UniProt D0EM60 1-705, R109A)
T1 sequence: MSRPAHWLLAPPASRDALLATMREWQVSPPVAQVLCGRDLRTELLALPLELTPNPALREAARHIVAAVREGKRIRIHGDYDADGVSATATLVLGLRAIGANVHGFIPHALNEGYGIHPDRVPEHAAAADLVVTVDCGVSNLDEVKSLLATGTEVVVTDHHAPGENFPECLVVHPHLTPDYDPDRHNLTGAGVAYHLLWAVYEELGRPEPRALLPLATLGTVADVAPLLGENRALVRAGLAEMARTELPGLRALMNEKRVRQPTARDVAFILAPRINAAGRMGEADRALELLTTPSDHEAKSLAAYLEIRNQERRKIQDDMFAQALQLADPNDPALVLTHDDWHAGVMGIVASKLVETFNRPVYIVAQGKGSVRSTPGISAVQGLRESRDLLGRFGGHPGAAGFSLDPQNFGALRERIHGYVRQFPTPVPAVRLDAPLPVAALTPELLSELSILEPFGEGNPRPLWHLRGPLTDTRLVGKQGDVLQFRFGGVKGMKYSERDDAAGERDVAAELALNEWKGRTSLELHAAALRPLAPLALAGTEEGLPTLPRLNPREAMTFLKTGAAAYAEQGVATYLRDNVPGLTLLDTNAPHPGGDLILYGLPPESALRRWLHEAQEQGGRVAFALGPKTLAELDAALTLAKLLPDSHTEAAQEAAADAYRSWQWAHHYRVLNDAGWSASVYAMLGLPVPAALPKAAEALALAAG
Experiment: EMSA; no Mn2+ added; EMSA: 10 nM 3'-6-FAM ssDNA, 50 mM Tris-HCl pH 7.5, 150 mM KCl, 0.1 mg/ml BSA, 1 mM DTT, 5% glycerol, 20 min at 30 C; 8% native PAGE in TBE; Hill fit
Conditions: protein: recombinant; tags: tag removed with TEV; label: 3'-6-FAM

With AAAAAAAAAAAAAAAAAAAA (ssDNA, 5'-P-dSpacer (tetrahydrofuran abasic, 5'-dRP mimic) added before A1) [KY11, 5'-P-dSpacer-(dA)20] as the binder, how does the binding signal read?
Its binding signal is 2 fold reduction.
